# Assay results reported in PMC3826599.
# Columns and labels:
# [1] = molecular target: Giardia lamblia macrophage migration inhibitory factor (Giardia lamblia ATCC 50803); assay: SEC
# [2] = molecular target: Giardia lamblia macrophage migration inhibitory factor (Giardia lamblia ATCC 50803); assay: crystal structure
substance,measurement,setting,value
Giardia lamblia macrophage migration inhibitory factor (natural protein),stoichiometry N,[1],3
same,stoichiometry N,[2],3
